# Reference: paper PMC6036246, “SAV4189, a MarR-Family Regulator in Streptomyces avermitilis, Activates Avermectin Biosynthesis” (Frontiers in Microbiology, 2018)
# Tested on: T1, His6-SAV4189 (Streptomyces avermitilis), ORF:1042fb45
# T1 sequence: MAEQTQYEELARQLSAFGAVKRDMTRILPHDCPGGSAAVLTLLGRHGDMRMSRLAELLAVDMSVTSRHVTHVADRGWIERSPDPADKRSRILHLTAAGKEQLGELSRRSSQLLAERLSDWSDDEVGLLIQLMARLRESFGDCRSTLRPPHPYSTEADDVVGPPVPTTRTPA
# Test: EMSA
# Conditions: EMSA as in Luo et al. 2014 (buffer not given), 0.15-0.3 nM DIG probe; footprinting 400 ng probe in 25 ul, 30 min at 25 C
row,Compound,binding
1,GACGACTCATATGCGGCAGGCCCTCCCCAGGACGTCGACAGCCGAAAGGCCTTTGGTTGTCCCCACAACCAGTTGTGACGAGACGACTCTATCCAGCAATCGCCCTCCCGCATATCCACTCGTCAAAGGCAACCCTCTCGGGCCATCTGTGCAGGTCAAGTGACCGGAGGGTAGCTAAGACCGTACCGCGCGGCAGTGCCCGAGCGGTGCGGCCTTGGCAACGTTGATC (double strand) [savR1p],no binding
2,TCATGGGATCTCCGGTGCCGAAGAGGGGACGAGAGCCACTCGGATTTTCTATGGTTAGGCTTACCTAAGTCAACGGGTTCCCGACATCCCGTCGGTAAAATCGTACCCCCGATTCCGATCAAGCCCACAGGAAAAGCCCGCCCCCCGAAGGGAGCGGGCTTTCGCGCGGCGGGCGGGACTACGGCAGCGTCAGGATGTCCGCCCCGCTGTCCGT (double strand) [hmuOp],binds
3,TTGATGACCTCGACCATGTGCACCGGGATACGGATGGTGCGGGCCTGGTCGGCCATGGCGCGGGTGATCGCCTGACGGATCCACCAGGTGGCGTACGTGGAGAACTTGTAGCCCTTGG (double strand) [hrdB],no binding
4,CATCACACCTCCCGTATTCGTTGCTTAGGGCAACCATAGGAAAGTTGGTTGCCGCAGGCAAACTAAATAGGGTCTTCAGGGATAAAAACTTGGCAAAGGCAAGTATTGGCAGGCGTAAAGCCGCAGGTGGGGAGGTCAGGAGCGGTCG (double strand) [4189p],binds
5,AATTGCTGGCCGAAGCCCGCGCGGGTGTGCAGGTCTGAAACCGCCGGGGGTGAGGTTAGGGGGGTGGGAAAACCTAGGGGTTGGTCCCCGGGGTGGCGCCGGATAGTGTCGAAACGGCTGAAACAGCATTACTGGAGCGGTTGAGAAAAGCAATCCCAGATTCTGTGCCAACGCGGGGAGAACGAGTGGAACTGGCGGATTCCGGCGACCTTTTGGAAATATTCGAGCGTACCGAGGAAATGGCGCGGCTCGCGCATGTGCTGGCGAGTGCCGGACAGGGCGAAGGCGGTGTGGTCCTCG (double strand) [olmRIIp],binds
6,TCCGGACTTGACTGATCTCGACAGTACTTGGCGCACTTGGCCCACTTGGGATCATTGCGGCGGTTGTTACCGCCCGTAAAGCACCATAAGCGCAGCGGGCGGGAGTTCAAACCCGATCAGCTTGGATAAGGTAAGCCTTACCTGTCAACGATCGTGAAGTCGGTGGTCCCCGCATGCCCTCGCCCGTCGCGGATGCCTACGCAAGGCTGACCGA (double strand) [2073p],binds
7,GACTGCCGGAACTCCATGCGCTGTGCCCTCCGGTTCGTGGTGTTACTTGGTTTTACCAAGTCAGAGCTTGGAAAGTCCAACAACATGTCTAGACTGCGTCGCATGCCACCTCGCCGAAGCTACGACCAGTACTGTTCCGCGGCCCGAGCCCTCGACGCCGTCGGTGACCGCTGGACCCTCCTGATCGTCCG (double strand) [aspB1p],binds
8,CGTGTTCACTTCAGAAACCTCCCTGACGAGGCCGCGACGTTGCGGCCGAGGTGGCTGGAAGTCAACTCGGCCACACGTGCGACGTCAAGAAGTAAATACTTAACGAGATGGCAACGGTGCCATGCGTTCTCTAAGTGAAGGCAGGGGTGGCCGCGGAAAGCGTGCCATCCAAAAGGGTCGAATCGCCCATCTCGCTCAACGCGAGAGCGAGCGCTCCGAGCACCTCGGCGCGGCCCCCAAGTGCCCCTGGAAGCACCGAGAGTTGAC (double strand) [xylFp],no binding
9,TGACCCCTCCCGCCACTTCCCCCGGCACTTTCCATCGCTTCTCGCCGTGAATTGCAGAGATTCCCCACACACTTATCCCGTTATTAATTCAGAACAGCTTCCCGCATTCTTCTGCCCGCTTTCTTTCGTGCTAAACGCAAAGATTTCGCGAACACCAACCGGCTTAATTCGGGCAGGTCCCGCACGGGTCGTCCACTTGTGATCGACTCCACATCGCACCCCTTTCCTCCCGTATTTTCCGGACAAAATGGGGGTTATCGACGC (double strand) [ectAp],binds

# Tested on: T1, His6-SAV4189 (Streptomyces avermitilis), ORF:1042fb45
# Test: competition
# Conditions: EMSA as in Luo et al. 2014 (buffer not given), 0.15-0.3 nM DIG probe; footprinting 400 ng probe in 25 ul, 30 min at 25 C
row,Compound,binding
1,TTGATGACCTCGACCATGTGCACCGGGATACGGATGGTGCGGGCCTGGTCGGCCATGGCGCGGGTGATCGCCTGACGGATCCACCAGGTGGCGTACGTGGAGAACTTGTAGCCCTTGG (double strand) [hrdB],no binding
2,CATCACACCTCCCGTATTCGTTGCTTAGGGCAACCATAGGAAAGTTGGTTGCCGCAGGCAAACTAAATAGGGTCTTCAGGGATAAAAACTTGGCAAAGGCAAGTATTGGCAGGCGTAAAGCCGCAGGTGGGGAGGTCAGGAGCGGTCG (double strand) [4189p],binds

# Target: T2, SAV4189 (His6-SAV4189) (Streptomyces avermitilis, UniProt Q82FR3)
# T2 construct: gene SAVERM_4189; full-length, 171 residues (516-bp CDS), His6-tagged from pET-28a(+) (NdeI/EcoRI), E. coli BL21(DE3), Ni-NTA; tag removal not mentioned; MarR family said to be generally homodimeric
# T2 sequence (Q82FR3 1-171): T1 sequence
# Test: EMSA, release of SAV4189 from DIG-labelled promoter probe […]p
# Format: binding
# Conditions: 62.5 nM His6-SAV4189, antibiotic in water
row,Compound,"EMSA, release of SAV4189 from DIG-labelled promoter probe 4189p"
1,"CN[C@H]1C[C@@H](N)[C@H](O)[C@@H](O[C@@H]2O[C@H](CO)[C@H](O)[C@@H]3OC4(O[C@H]23)O[C@H]([C@@H](N)CO)[C@H](O)[C@H](O)[C@H]4O)[C@@H]1O (stereo partly drawn) [HygB, hygromycin B]",SAV4189-4189p complex was disrupted in dose-dependent manner by exogenous HygB and Thi
